B1: h10C3.V1 HC F91Y (antibody, name in Kabat numbering, V domains shown)
VH: EQQLVESGGGLVQPGGSLRLSCAASGFSLSGYTMGWVRQAPGKGLEYIGVISSGGTTYYTNWAKGRFTISKDSSKNTVYLQMGSLRAEDMAVYYCARVAFTAYGGGGFPTLHRLDLWGQGTLVTVSS
VL: DQVLTQSPDSLAVSLGERATINCQSSESVYNNDYLAWYQQKPGQPPKLLIYSASTLASGVPDRFSGSGSGTDFTLTISSLQAEDVAVYYCAGGYLGNNVFGGGTKVEIK
notes: Framework variant of h10C3.v1 (human IgG1)
B2: h10F7.V1 HC Q2V (antibody, human IgG1, name in Kabat numbering, V domains shown)
VH: EVQLVESGGGLVQPGGSLRLSCAVSGFSLSGYAMSWVRQAPGKGLEYIGVISSSGSSYYPSWAKGRFTISKDSSKNTVYLQMGSLRAEDMAVYFCARVQFYVGYAVYGYGIIDRLDLWGQGTLVTVSS
VL: DAVLTQSPDSLAVSLGERATINCQSSKSVYNNNWLSWYQQKPGQPPKLLIYRASTLESGVPDRFSGSGSGTDFTLTISSLQAEDVAVYFCAGGYSSSSSANAFGGGTKVEIK
notes: Framework variant of h10F7.v1 (human IgG1)
B3: h10F7.V1 LC A2I (antibody, human IgG1, name in Kabat numbering, V domains shown)
VH: EQQLVESGGGLVQPGGSLRLSCAVSGFSLSGYAMSWVRQAPGKGLEYIGVISSSGSSYYPSWAKGRFTISKDSSKNTVYLQMGSLRAEDMAVYFCARVQFYVGYAVYGYGIIDRLDLWGQGTLVTVSS
VL: DIVLTQSPDSLAVSLGERATINCQSSKSVYNNNWLSWYQQKPGQPPKLLIYRASTLESGVPDRFSGSGSGTDFTLTISSLQAEDVAVYFCAGGYSSSSSANAFGGGTKVEIK
notes: as for B2
B4: h10F7.V1 LC L4M (antibody, human IgG1, name in Kabat numbering, V domains shown)
VH: EQQLVESGGGLVQPGGSLRLSCAVSGFSLSGYAMSWVRQAPGKGLEYIGVISSSGSSYYPSWAKGRFTISKDSSKNTVYLQMGSLRAEDMAVYFCARVQFYVGYAVYGYGIIDRLDLWGQGTLVTVSS
VL: DAVMTQSPDSLAVSLGERATINCQSSKSVYNNNWLSWYQQKPGQPPKLLIYRASTLESGVPDRFSGSGSGTDFTLTISSLQAEDVAVYFCAGGYSSSSSANAFGGGTKVEIK
notes: as for B2
B5: h10F7.V1 HC S73N (antibody, human IgG1, name in Kabat numbering, V domains shown)
VH: EQQLVESGGGLVQPGGSLRLSCAVSGFSLSGYAMSWVRQAPGKGLEYIGVISSSGSSYYPSWAKGRFTISKDNSKNTVYLQMGSLRAEDMAVYFCARVQFYVGYAVYGYGIIDRLDLWGQGTLVTVSS
VL: DAVLTQSPDSLAVSLGERATINCQSSKSVYNNNWLSWYQQKPGQPPKLLIYRASTLESGVPDRFSGSGSGTDFTLTISSLQAEDVAVYFCAGGYSSSSSANAFGGGTKVEIK
notes: as for B2
B6: h10F7.V1 HC V78L (antibody, human IgG1, name in Kabat numbering, V domains shown)
VH: EQQLVESGGGLVQPGGSLRLSCAVSGFSLSGYAMSWVRQAPGKGLEYIGVISSSGSSYYPSWAKGRFTISKDSSKNTLYLQMGSLRAEDMAVYFCARVQFYVGYAVYGYGIIDRLDLWGQGTLVTVSS
VL: DAVLTQSPDSLAVSLGERATINCQSSKSVYNNNWLSWYQQKPGQPPKLLIYRASTLESGVPDRFSGSGSGTDFTLTISSLQAEDVAVYFCAGGYSSSSSANAFGGGTKVEIK
notes: as for B2
B7: h10F7.V1 HC V24A (antibody, human IgG1, name in Kabat numbering, V domains shown)
VH: EQQLVESGGGLVQPGGSLRLSCAASGFSLSGYAMSWVRQAPGKGLEYIGVISSSGSSYYPSWAKGRFTISKDSSKNTVYLQMGSLRAEDMAVYFCARVQFYVGYAVYGYGIIDRLDLWGQGTLVTVSS
VL: DAVLTQSPDSLAVSLGERATINCQSSKSVYNNNWLSWYQQKPGQPPKLLIYRASTLESGVPDRFSGSGSGTDFTLTISSLQAEDVAVYFCAGGYSSSSSANAFGGGTKVEIK
notes: as for B2
B8: h10F7.V1 LC F87Y (antibody, name in Kabat numbering, V domains shown)
VH: EQQLVESGGGLVQPGGSLRLSCAVSGFSLSGYAMSWVRQAPGKGLEYIGVISSSGSSYYPSWAKGRFTISKDSSKNTVYLQMGSLRAEDMAVYFCARVQFYVGYAVYGYGIIDRLDLWGQGTLVTVSS
VL: DAVLTQSPDSLAVSLGERATINCQSSKSVYNNNWLSWYQQKPGQPPKLLIYRASTLESGVPDRFSGSGSGTDFTLTISSLQAEDVAVYYCAGGYSSSSSANAFGGGTKVEIK
notes: as for B2

The target in this test is T1, human MerTK (human, UniProt Q12866 26-499).
T1 construct: also called HuMER
T1 sequence: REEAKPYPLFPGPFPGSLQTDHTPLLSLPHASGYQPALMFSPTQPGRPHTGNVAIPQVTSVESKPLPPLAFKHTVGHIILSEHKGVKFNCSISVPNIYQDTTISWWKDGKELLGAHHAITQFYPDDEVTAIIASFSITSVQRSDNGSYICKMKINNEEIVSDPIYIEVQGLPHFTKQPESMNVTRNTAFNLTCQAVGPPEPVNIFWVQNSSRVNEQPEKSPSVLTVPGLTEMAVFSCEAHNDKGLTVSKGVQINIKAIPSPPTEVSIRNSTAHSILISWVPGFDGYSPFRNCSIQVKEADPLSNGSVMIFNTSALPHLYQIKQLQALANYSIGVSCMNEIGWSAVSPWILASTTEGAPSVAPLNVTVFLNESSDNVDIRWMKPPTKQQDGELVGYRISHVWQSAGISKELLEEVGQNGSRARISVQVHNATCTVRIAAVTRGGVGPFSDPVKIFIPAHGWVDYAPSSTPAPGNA
Description: SPR BIAcore T200, Ab captured, 37C. As to the method: Each humanized mutation variant was subject to BIAcore analysis to determine the important rabbit residues for binding and stability. Binding affinity determinations were obtained using Surface Plasmon Resonance (SRP) measurements from a BIAcore™-T200 instrument. Briefly, each humanized mutation variant antibody was captured to achieve approximately 100 RU (Response Units). Then, 3-fold serial dilutions of human MerTK (0.4 nM to 100 nM) diluted in HBS-EP buffer (0.01M HEPES pH 7.4, 0.15M NaCl, 3 mM EDTA and 0.05% v/v surfactant P20) was injected into the BIAcore™-T200 instrument at 37° C. with a flow rate of 30 μl/min. Association rates (kₒₙ) and dissociation rates (koff) were calculated using a simple one-to-one Langmuir binding model (BIAcore T200 evaluation software version 2.0). The equilibrium dissociation constant (KD) was calculated as the ratio koff/kₒₙ.
Molecule B1 registered a Kd of 14.9 nM.

Turning to B2, binding was put at a Kd of 5.9 nM.

B3: the Kd turned out to be 5.9 nM.

Regarding B4, binding was characterised by a dissociation constant (Kd) of 6.2 nM.

Take B5: the affinity, expressed as Kd, was 7.6 nM.

With B6, the equilibrium dissociation constant (Kd) amounted to 5.1 nM. The Kd values of the last two molecules are within 1.5-fold of each other.

As to B7, the dissociation constant Kd turned out to be 9.4 nM. This Kd lies about 1.8-fold higher than the previous one.

On to B8, for which the Kd is 8.8 nM. The Kd values of the last two molecules are within 1.5-fold of each other.

For the origin of these results see patent publication US20220135701A1 (Genentech, published 2022).
